From patent US20190085082A1 (CANCER RESEARCH TECHNOLOGY, published 2019)

How the values were obtained:
[1] = biological target: T1, thrombomodulin (CD141), wild type, with C-terminal GFP tag, expressed on HEK293T cells (UniProt P07204 19-575); test: flow cytometry, HEK293T cells transfected with thrombomodulin (C-terminal GFP tag, GFP-positive cells gated)
T1 construct: whole, on cells; also called WT CD141; VVT CD141; not shown: C-terminal GFP tag

[2] = biological target: T2, murine CLEC14A-Fc fusion protein (mouse, UniProt Q8VCP9 22-386); test: ELISA of hybridoma supernatants on absorbed antigen
T2 construct: extracellular domain; also called CM; mCLEC14A-Fc; not shown: human Fc tag from the pcDNA3-Fc plasmid
T2 sequence (looked up): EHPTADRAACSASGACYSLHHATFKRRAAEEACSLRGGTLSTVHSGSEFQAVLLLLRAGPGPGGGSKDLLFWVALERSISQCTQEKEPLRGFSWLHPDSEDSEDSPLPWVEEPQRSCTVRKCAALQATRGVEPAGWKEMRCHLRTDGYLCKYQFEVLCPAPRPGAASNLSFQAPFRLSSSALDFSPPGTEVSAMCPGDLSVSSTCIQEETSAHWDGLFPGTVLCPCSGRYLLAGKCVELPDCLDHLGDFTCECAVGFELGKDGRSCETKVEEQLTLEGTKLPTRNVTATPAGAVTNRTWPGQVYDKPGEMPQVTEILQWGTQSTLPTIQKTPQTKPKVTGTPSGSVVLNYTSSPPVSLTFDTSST
Protocol: More than 500 HAT-resistant hybridoma clones from each mouse were obtained. All of the clone supernatants were tested twice with 4 days interval by ELISA against three absorbed antigens (CM, CH and Fc). […] The positives were cloned 2-4 times by the limiting dilution method, propagated in culture flasks and injected into mice for ascites. One clone (CRT-3) was the result of immunisation with CLEC14a human-AP (CHAP), and the other clone (CRT-2) was the result of immunisation with CLEC14a mouse-AP (CM-AP).

[3] = biological target: T3, full length human CLEC14A on cells (engineered CHO, SEND or 293 cells; HUVECs) (human, UniProt Q86T13 22-490); test: fluorescence microscopy of HUVEC treated with CRT-3, antibody localisation at 0 and 90 minutes
T3 construct: HUVECs express it naturally; also called huCLEC
T3 sequence: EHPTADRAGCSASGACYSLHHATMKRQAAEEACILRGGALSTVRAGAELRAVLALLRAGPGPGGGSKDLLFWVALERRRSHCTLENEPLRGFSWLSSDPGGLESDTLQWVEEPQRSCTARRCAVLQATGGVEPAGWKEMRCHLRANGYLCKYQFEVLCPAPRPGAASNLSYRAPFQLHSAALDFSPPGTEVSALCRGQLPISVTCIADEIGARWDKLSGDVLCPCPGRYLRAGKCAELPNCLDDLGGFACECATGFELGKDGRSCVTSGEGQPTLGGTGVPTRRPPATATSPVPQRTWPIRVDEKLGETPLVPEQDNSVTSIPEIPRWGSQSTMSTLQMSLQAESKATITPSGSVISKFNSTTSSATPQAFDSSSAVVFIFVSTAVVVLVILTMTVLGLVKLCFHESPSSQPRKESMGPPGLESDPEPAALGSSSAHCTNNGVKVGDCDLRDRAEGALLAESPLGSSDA

T1 sequence (P07204 19-575): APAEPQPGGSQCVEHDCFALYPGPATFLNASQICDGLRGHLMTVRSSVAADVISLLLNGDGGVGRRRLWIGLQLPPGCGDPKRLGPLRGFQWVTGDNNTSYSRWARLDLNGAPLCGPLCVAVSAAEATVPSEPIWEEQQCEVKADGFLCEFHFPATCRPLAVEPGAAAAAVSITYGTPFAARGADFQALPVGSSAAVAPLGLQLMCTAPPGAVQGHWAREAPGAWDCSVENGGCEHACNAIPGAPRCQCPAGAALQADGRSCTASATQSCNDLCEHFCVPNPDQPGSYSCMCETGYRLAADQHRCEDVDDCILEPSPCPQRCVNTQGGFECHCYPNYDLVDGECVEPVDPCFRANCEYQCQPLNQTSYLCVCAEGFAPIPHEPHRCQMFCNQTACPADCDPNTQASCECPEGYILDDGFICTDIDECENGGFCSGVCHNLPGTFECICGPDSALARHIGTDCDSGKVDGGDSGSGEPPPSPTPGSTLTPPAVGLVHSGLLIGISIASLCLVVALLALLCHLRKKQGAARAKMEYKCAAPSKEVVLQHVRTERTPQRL

binding result [1]: no binding
binding result [2]: binds
binding result [3]: binds
B1: CRT-3 anti-CLEC14A monoclonal antibody (antibody, IgG1, V domains shown)
VH: EVQLQQSGTVLARPGASVKMSCKASGYTFTSYWMHWVKQRPGQGLEWIGAIYPGNSDTSYNQKFKGKAKLTAVTSTSTAYMELSSLTNEDSAVFYCTHYYGSDYAMDYWGQGTSVTV
VL: QIVLTQSPAIMSASLGERVTMTCTASSSVSSSYLHWYQQKPGSSPKLWIYSTSNLASGVPARFSGSGSGTSYSLTISSMEAEDAATYYCHQYHRSPRTFGGGTKLEIKR
